According to PMC12093266, “Synergistic action of two radical SAM enzymes in the biosynthesis of thuricin CD, a two-component sactibiotic” (Chemical Science, 2025):

Key:
[1] = biological target: TrnD (Bacillus thuringiensis); assay: MST; TrnD fluorescently labeled; TrnC R370A/K372A mutant as the other partner
[2] = biological target: TrnC (Bacillus thuringiensis); assay: MST; TrnC fluorescently labeled with RED-NHS; series of diluted TrnD (or TrnD(ΔRRE), or an equimolar mixture of TrnD with TrnA or TrnB) mixed with it in capillaries; Monolith instrument; aerobic conditions
[3] = biological target: TrnC (Bacillus thuringiensis); assay: pull-down; 6× His-tagged TrnC and non-tagged TrnD coexpressed in E. coli from a pRSFduet-1-derived construct; cell lysate purified on Ni-NTA; SDS-PAGE

Substance | Kd [2] [µM] | further results
TrnC R370A/K372A mutant (enzyme) | – | Kd [1]: 10.2 µM
TrnD(ΔRRE) (enzyme) | 100 | –
equimolar mixture of TrnD and TrnA (complex) | 0.54 | –
non-tagged TrnD (enzyme) | – | stoichiometry N [3]: 1
